According to US9988424 (DUKE UNIVERSITY, dated 2018):

Key:
AE.A244 gD+ gp120 = biological target: T1, AE.A244 gD+ gp120 (HIV-1); experiment: ELISA
T1 construct: domain: gp120; also called AE.A244 gp120gD+

AE.92TH023 gp120 gD+ = biological target: T2, AE.92TH023 gp120 gD+ (HIV-1); experiment: ELISA
T2 construct: domain: gp120; also called AE.92TH023 gp12 gD+

AE.97CNG2XF gp140CF = biological target: T3, AE.97CNG2XF gp140CF (HIV-1); experiment: ELISA
T3 construct: also called E.97CNGX2F gp140CF

C.1086 gp120 [1] = biological target: C.1086 gp120 (HIV-1); experiment: ELISA
A.9004SS V1V2 Tags = biological target: T4, A.9004SS V1V2 Tags; experiment: ELISA, OD405
T4 Env construct: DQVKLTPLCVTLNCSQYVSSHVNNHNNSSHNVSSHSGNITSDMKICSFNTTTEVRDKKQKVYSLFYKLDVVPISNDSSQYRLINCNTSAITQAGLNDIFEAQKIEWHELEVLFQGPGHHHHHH

AE.con gp140CF = biological target: T5, AE.con gp140CF; experiment: ELISA, OD405
T5 construct: also called AE.con.env03 gp140CF

B. 681-7 gp140C = experiment: ELISA, OD405
B. 684-6 gp140C = experiment: ELISA, OD405
B.040 gp140C [2] = experiment: ELISA, OD405
B.62357 140C [3] = biological target: T6, B.62357 140C; experiment: ELISA, OD405
T6 construct: also called B.62357 gp140C

B.63521 gp140C = experiment: ELISA, OD405
B.63521_V1V2 Tags = biological target: T7, B.63521_V1V2 Tags; experiment: ELISA, OD405
T7 Env construct: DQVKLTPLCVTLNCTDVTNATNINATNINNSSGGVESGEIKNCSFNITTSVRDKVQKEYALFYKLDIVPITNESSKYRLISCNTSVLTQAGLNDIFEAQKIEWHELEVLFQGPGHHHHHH

B.Case A2 V1/V2 Tags = biological target: T8, B.Case A2 V1/V2 Tags; experiment: ELISA, OD405
T8 Env construct: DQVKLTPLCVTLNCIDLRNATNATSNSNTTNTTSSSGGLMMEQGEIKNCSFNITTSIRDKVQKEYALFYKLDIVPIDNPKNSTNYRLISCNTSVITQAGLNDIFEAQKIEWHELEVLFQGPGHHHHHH

B.con gp140CF = biological target: T9, B.con gp140CF; experiment: ELISA, OD405
T9 construct: also called B.con.env03 gp140CF

C.1086 gp140 = biological target: T10, C.1086 gp140; experiment: ELISA, OD405
T10 construct: also called C.1086gp140C

Con 6 gp120 = experiment: ELISA, OD405
D.9009SA V1V2 Tags = biological target: T11, D.9009SA V1V2 Tags; experiment: ELISA, OD405
T11 Env construct: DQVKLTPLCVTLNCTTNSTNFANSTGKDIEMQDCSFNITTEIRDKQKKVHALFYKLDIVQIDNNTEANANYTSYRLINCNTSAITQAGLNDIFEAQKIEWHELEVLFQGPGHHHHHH

G.con gp140CF = biological target: T12, G.con gp140CF; experiment: ELISA, OD405
T12 construct: also called G.con.env03 gp140CF

B.HXB/BAL gp140CFI = biological target: T13, B.HXB/BAL gp140CFI (HIV-1, UniProt P04578 33-680); experiment: ELISA, OD405
T13 construct: also called B.HxB/Ba gp140 CFI

C.1086 gp120 [4] = biological target: C.1086 gp120 (HIV-1); experiment: ELISA, OD405
G.con 140CF = biological target: T14, G.con 140CF; experiment: ELISA OD405nm, bar chart, antibody concentration not given
T14 construct: also called G.con gp140CF; G.con.env03 gp140CF

Con 6 120 = biological target: T15, Con 6 120; experiment: as above
T15 construct: also called Con 6 gp120

B.con env03 140CF = biological target: T16, B.con env03 140CF; experiment: as above
T16 construct: also called B.con gp140CF

AE.con env03 40CF = biological target: T17, AE.con env03 40CF; experiment: as above
T17 construct: also called AE.con gp140CF; AE.con.env03 gp140CF

B.62357 140C [5] = biological target: T18, B.62357 140C; experiment: as above
T18 construct: also called B.62357 gp140C

B.040 gp140C [6] = experiment: as above
SIV CPZ US-1 gp140CF = biological target: T19, SIV CPZ US-1 gp140CF (SIVcpz); experiment: as above
T19 construct: also called US-1 SIVCPZ gp140CF
T19 chain: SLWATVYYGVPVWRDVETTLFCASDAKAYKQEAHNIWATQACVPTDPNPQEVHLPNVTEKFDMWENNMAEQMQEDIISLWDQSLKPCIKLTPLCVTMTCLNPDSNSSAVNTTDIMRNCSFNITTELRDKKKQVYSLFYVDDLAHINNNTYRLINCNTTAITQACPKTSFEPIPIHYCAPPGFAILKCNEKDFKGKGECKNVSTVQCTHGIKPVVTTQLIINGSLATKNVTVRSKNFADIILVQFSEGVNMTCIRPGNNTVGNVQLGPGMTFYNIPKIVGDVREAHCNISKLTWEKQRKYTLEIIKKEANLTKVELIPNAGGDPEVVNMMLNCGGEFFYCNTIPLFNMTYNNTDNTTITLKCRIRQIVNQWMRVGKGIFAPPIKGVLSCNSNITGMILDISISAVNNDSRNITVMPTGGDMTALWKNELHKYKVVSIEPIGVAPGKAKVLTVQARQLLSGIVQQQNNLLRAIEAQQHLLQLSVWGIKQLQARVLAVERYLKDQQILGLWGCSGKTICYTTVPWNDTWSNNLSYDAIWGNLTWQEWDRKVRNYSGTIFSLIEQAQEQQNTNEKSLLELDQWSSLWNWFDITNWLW

B1: CH59 (antibody, V domains shown)
VH: EVQLVESGGGLVQPGRSLRLSCAASGFTFDDGAMHWVRQAPGKGLEWVSGISWNSNIIAYADSVKGRFTISRDNAKNSLYLEMNSLRVEDTALYYCAKDSPRGELPLNYWGQGTLVTVSS
VL: SYELTQPPSVSVSPGQTARITCSGDALPKNYAYWYQQKSGQAPVLVIYEDSKRPSGIPERFSGSSSGTMATLTISGAQVEDEADYYCYSTDSSGNHRVFGGGTKLTVL
notes: also called mAb CH59
For B1, the EC50 (AE.A244 gD+ gp120) was 0.01 µg/mL, the EC50 (AE.92TH023 gp120 gD+) was 0.023 µg/mL and the EC50 (AE.97CNG2XF gp140CF) was 0.066 µg/mL. For the same binder, the EC50 (C.1086 gp120 [1]) was 0.02 µg/mL.

B2: CH59 reverted unmutated ancestor antibody (antibody, V domains shown)
VH: EVQLVESGGGLVQPGRSLRLSCAASGFTFDDYAMHWVRQAPGKGLEWVSGISWNSGSIGYADSVKGRFTISRDNAKNSLYLQMNSLRAEDTALYYCAKDSPRGELPFDYWGQGTLVTVSS
VL: SYELTQPPSVSVSPGQTARITCSGDALPKKYAYWYQQKSGQAPVLVIYEDSKRPSGIPERFSGSSSGTMATLTISGAQVEDEADYYCYSTDSSGNHRVFGGGTKLTVL
notes: also called CH59 RUA; CH59_RUA
B2: no binding (tested: 10 ug/ml) (A.9004SS V1V2 Tags); no binding (tested: 10 ug/ml) (AE.con gp140CF); no binding (tested: 10 ug/ml) (B. 681-7 gp140C). B2: no binding (tested: 10 ug/ml) (B. 684-6 gp140C); no binding (tested: 10 ug/ml) (B.040 gp140C [2]); no binding (tested: 10 ug/ml) (B.62357 140C [3]). B2: no binding (tested: 10 ug/ml) (B.63521 gp140C); no binding (tested: 10 ug/ml) (B.63521_V1V2 Tags); no binding (tested: 10 ug/ml) (B.Case A2 V1/V2 Tags). B2: no binding (tested: 10 ug/ml) (B.con gp140CF); no binding (tested: 10 ug/ml) (C.1086 gp140); no binding (tested: 10 ug/ml) (Con 6 gp120). B2: no binding (tested: 10 ug/ml) (D.9009SA V1V2 Tags); no binding (tested: 10 ug/ml) (G.con gp140CF); no binding (tested: 10 ug/ml) (B.HXB/BAL gp140CFI). B2: no binding (tested: 10 ug/ml) (C.1086 gp120 [4]).

B3: CH58 reverted unmutated ancestor antibody (antibody, V domains shown)
VH: EVQLVQSGAEVKKPGESLKISCKGSGYSFTSYWIGWVRQMPGKGLEWMGIIYPGDSDTRYSPSFQGQVTISADKSISTAYLQWSSLKASDTAMYYCARLGGRYYYDSSGYYYFDYWGQGTLVTVSS
VL: NFMLTQPHSVSESPGKTVTISCTRSSGSIASNYVQWYQQRPGSSPTTVIYEDNQRPSGVPDRFSGSIDSSSNSASLTISGLKTEDEADYYCQSYDSSSWVFGGGTKLTVL
notes: also called CH58 RUA; CH58_RUA
B3: no binding (tested: not given) (G.con 140CF); no binding (tested: not given) (Con 6 120); no binding (tested: not given) (B.con env03 140CF). B3: no binding (tested: not given) (AE.con env03 40CF); no binding (tested: not given) (B.62357 140C [5]); no binding (tested: not given) (B.040 gp140C [6]). B3: no binding (tested: not given) (SIV CPZ US-1 gp140CF).
